{
  "source": "patent US12129308",
  "about": "(Merck KGaA, dated 2024)",
  "key": {"activated human MMP13 [1]": {"biological_target": "T1, activated human MMP13 (human, UniProt P45452 104-471)", "experiment": "cell-based or functional assay"}, "activated rat MMP13 [2]": {"biological_target": "T2, activated rat MMP13 (rat, UniProt P23097 99-466)", "experiment": "cell-based or functional assay"}, "[3]": {"biological_target": "T3, activated MMP13 (species not stated) (Homo sapiens (Human), UniProt P45452 104-471, Biotinylated in the TIMP-2 competition ELISA (sites not given). Activated form: pro-peptide removed.)", "T3 construct": "campaign 4 ELISA; Probably human", "experiment": "TIMP-2 competition ELISA; Nanobody pre-incubated with 1.26 nM activated MMP13-biotin, binding to captured TIMP-2"}, "activated human MMP13 [4]": {"biological_target": "T1, activated human MMP13", "experiment": "cell-based or functional assay", "remark": "listed apart in the source"}, "bovine MMP13": {"biological_target": "bovine MMP13 (bovine, UniProt O77656 104-471)", "experiment": "cell-based or functional assay"}, "activated rat MMP13 [5]": {"biological_target": "T2, activated rat MMP13", "experiment": "cell-based or functional assay", "remark": "listed apart in the source"}, "activated dog MMP13 [6]": {"biological_target": "T4, activated dog MMP13 (dog, UniProt P45452 104-471 (human entry))", "experiment": "cell-based or functional assay"}, "cynomolgus MMP13": {"biological_target": "cynomolgus MMP13 (cynomolgus, UniProt A0A2K5U988 104-471)", "experiment": "cell-based or functional assay"}, "[7]": {"biological_target": "T3, activated MMP13 (species not stated)", "experiment": "cell-based or functional assay"}, "activated human MMP13 [8]": {"biological_target": "T1, activated human MMP13", "experiment": "competition ELISA: dilution series of Nanobody against 0.6 nM biotinylated 40E09 (C0101040E09-biotin) on APMA-activated human full-length MMP13 captured via mouse anti-human MMP13 mAb MAB511"}, "activated human MMP13 [9]": {"biological_target": "T1, activated human MMP13", "experiment": "ELISA; activated MMP13 captured via mAb511, Nanobody detected with anti-FLAG-HRP", "procedure": "(§1) After a washing step in PBS+0.05% Tween20, 20 nM activated human, rat or dog MMP13 were added for one hour at RT. After a second washing step, 10-fold dilutions of periplasmic extracts or dilution series of purified Nanobodies in PBS, 0.1% casein, 0.05% Tween 20 were added for one hour at RT. Bound Nanobodies were detected with mouse anti-FLAG-HRP (Sigma (A8592))."}, "activated rat MMP13 [10]": {"biological_target": "T2, activated rat MMP13", "experiment": "ELISA; activated MMP13 captured via mAb511, Nanobody detected with anti-FLAG-HRP", "procedure": "as §1"}, "activated dog MMP13 [11]": {"biological_target": "T4, activated dog MMP13", "experiment": "ELISA; activated MMP13 captured via mAb511, Nanobody detected with anti-FLAG-HRP", "procedure": "as §1"}, "activated human MMP13 [12]": {"biological_target": "T1, activated human MMP13", "experiment": "cell-based or functional assay", "remark": "listed apart in the source"}, "activated human MMP13 [13]": {"biological_target": "T1, activated human MMP13", "experiment": "cell-based or functional assay", "remark": "listed apart in the source"}, "Aggrecan": {"biological_target": "T5, Aggrecan", "T5 construct": "also called CAP", "experiment": "competition ELISA (CAP) on Aggrecan; competitor not stated"}},
  "note": "Like-named read-outs stand apart in the source and are kept apart here.",
  "data": [
    {"binder": "C0101PMP517A01 (VHH, Profile 2 Nanobody; also called C0101517A01; C010100087 (parental)) VHH: DVQLVESGGGLVQPGGSLRLSCAASGRTFSSYAMGWFRQAPGKEREFVAAISWSGGSTYYADSVKGRFTISRDNSKNTVYLQMNSLRPEDTAVYYCTAALAVYGPNRYRYGPVGEYNYWGQGTLVTVSS", "values": [
      {"measurement": "IC50, human fluorogenic collagen assay", "setting": "activated human MMP13 [1]", "result": 10.8, "unit": "nM"},
      {"measurement": "IC50, (adapted) rat fluorogenic peptide assay", "setting": "activated rat MMP13 [2]", "result": 2.64, "unit": "nM"},
      {"measurement": "IC50", "setting": "[3]", "result": 2.6, "unit": "nM"},
      {"measurement": "IC50, human collagenolytic assay", "setting": "activated human MMP13 [4]", "result": 2.3, "unit": "nM"},
      {"measurement": "IC50, human fluorogenic collagen assay", "setting": "activated human MMP13 [4]", "result": 10.9, "unit": "nM"},
      {"measurement": "IC50, human fluorogenic peptide assay", "setting": "activated human MMP13 [4]", "result": 4.6, "unit": "nM"},
      {"measurement": "IC50, bovine fluorogenic peptide assay", "setting": "bovine MMP13", "result": 6.4, "unit": "nM"},
      {"measurement": "IC50, rat fluorogenic peptide assay", "setting": "activated rat MMP13 [5]", "result": 2.1, "unit": "nM"},
      {"measurement": "IC50, dog fluorogenic peptide assay", "setting": "activated dog MMP13 [6]", "result": 3.4, "unit": "nM"},
      {"measurement": "IC50, cyno fluorogenic peptide assay", "setting": "cynomolgus MMP13", "result": 3, "unit": "nM"},
      {"measurement": "IC50, fluorogenic peptide assay", "setting": "[7]", "result": 2.5, "unit": "nM"}
    ]},
    {"binder": "C0101PMP040E09 (VHH, Profile 1 Nanobody; also called C0101040E09) VHH: EVQLVESGGGSVQAGGSLRLSCAASGSTFSRYSMNWYRQAPGKQREFVAGISVGRITNYAVSVRGRFTISRDNAEGTGYLQMNSLKPEDTAVYYCNAGGLQGYWGLGTQVTVSS", "values": [
      {"measurement": "IC50 (read off the curve)", "setting": "activated human MMP13 [8]", "result": "~4", "unit": "nM"},
      {"measurement": "EC50", "setting": "activated human MMP13 [9]", "result": 0.66, "unit": "nM"},
      {"measurement": "EC50", "setting": "activated rat MMP13 [10]", "result": 0.44, "unit": "nM"},
      {"measurement": "EC50", "setting": "activated dog MMP13 [11]", "result": 0.38, "unit": "nM"},
      {"measurement": "IC50 (read off the curve); fluorogenic Collagen assay, partial inhibition [left graph]", "setting": "activated human MMP13 [12]", "result": "~20", "unit": "nM"},
      {"measurement": "IC50, human collagenolytic assay", "setting": "activated human MMP13 [4]", "result": 10.2, "unit": "nM"}
    ]},
    {"binder": "C010100729 (bispecific antibody, also called 517A01SO-40E09SO-604F02SO-A) DVQLVESGGGLVQPGGSLRLSCAASGRTFSSYAMGWFRQAPGKEREFVAAISWSGGSTYYADSVKGRFTISRDNSKNTVYLQMNSLRPEDTAVYYCTAALAVYGPSRYRYGPVGEYQYWGQGTLVTVSSGGGGSGGGGSGGGGSGGGGSGGGGSGGGGSGGGGSEVQLVESGGGLVQPGGSLRLSCAASGSTFSRYSMNWYRQAPGKQREFVAGISVGRITNYAVSVKGRFTISRDNSKNTGYLQMNSLRPEDTAVYYCNAGGLQGYWGQGTLVTVSSGGGGSGGGGSGGGGSGGGGSGGGGSGGGGSGGGGSEVQLVESGGGLVQPGGSLRLSCAASGRTFSSYTMGWFRQAPGKEREFVAAISWSGGRTYYADSVKGRFTISRDNSKNTVYLQMNSLRPEDTAVYYCAAYRRRRASSNRGLWDYWGQGTLVTVSSA", "values": [
      {"measurement": "potency, human fluorogenic peptide assay", "setting": "activated human MMP13 [13]", "result": 0.541, "unit": "nM"},
      {"measurement": "IC50", "setting": "Aggrecan", "result": 21, "unit": "nM"}
    ]},
    {"binder": "C010100724 (bispecific antibody, MMP13-Aggrecan bispecific Nanobody construct; also called 529C12SO-604F02SO-A) DVQLVESGGGLVQPGGSLRLSCAASGSIFSINAMGWYRQAPGKQRELVAAISSGGSTYYADSVKGRFTISRDNSKNTVYLQMNSLRPEDTAVYYCNAAVDASRGLPYELYYYWGQGTLVTVSSGGGGSGGGGSGGGGSGGGGSGGGGSGGGGSGGGGSEVQLVESGGGLVQPGGSLRLSCAASGRTFSSYTMGWFRQAPGKEREFVAAISWSGGRTYYADSVKGRFTISRDNSKNTVYLQMNSLRPEDTAVYYCAAYRRRRASSNRGLWDYWGQGTLVTVSSA", "values": [
      {"measurement": "potency, human fluorogenic peptide assay", "setting": "activated human MMP13 [13]", "result": 0.697, "unit": "nM"},
      {"measurement": "IC50", "setting": "Aggrecan", "result": 32, "unit": "nM"}
    ]},
    {"binder": "C010100690 (bispecific antibody, MMP13-Aggrecan bispecific Nanobody construct; also called 80A01-604F02SO) EVQLVESGGGLVQPGGSLRLSCAASGFTLAYYSIGWFRQAPGKEREGVSCISSGIDGSTYYADSVKGRFTISRDNAKNTMYLQMNNLKPEDTGVYYCAADPSHYYSEYDCGYYGMDYWGKGTLVTVSSGGGGSGGGGSGGGGSGGGGSGGGGSGGGGSGGGGSEVQLVESGGGLVQPGGSLRLSCAASGRTFSSYTMGWFRQAPGKEREFVAAISWSGGRTYYADSVKGRFTISRDNSKNTVYLQMNSLRPEDTAVYYCAAYRRRRASSNRGLWDYWGQGTLVTVSS", "values": [
      {"measurement": "potency, human fluorogenic peptide assay", "setting": "activated human MMP13 [13]", "result": 2.42, "unit": "nM"},
      {"measurement": "IC50", "setting": "Aggrecan", "result": 24, "unit": "nM"}
    ]},
    {"binder": "C010100682 (bispecific antibody, MMP13-Aggrecan bispecific Nanobody construct; also called 529C12SO-114F08SO-114F08SO) EVQLVESGGGLVQPGGSLRLSCAASGSIFSINAMGWYRQAPGKQRELVAAISSGGSTYYADSVKGRFTISRDNSKNTVYLQMNSLRPEDTAVYYCNAAVDASRGLPYELYYYWGQGTLVTVSSGGGGSGGGGSGGGGSGGGGSGGGGSGGGGSGGGGSEVQLVESGGGLVQPGGSLRLSCAASGSTFIINVVRWYRRAPGKQRELVATISSGGNANYVDSVRGRFTISRDNSKNTVYLQMNSLRPEDTAVYYCNVPTTHYGGVYYGPYWGQGTLVTVSSGGGGSGGGGSGGGGSGGGGSGGGGSGGGGSGGGGSEVQLVESGGGLVQPGGSLRLSCAASGSTFIINVVRWYRRAPGKQRELVATISSGGNANYVDSVRGRFTISRDNSKNTVYLQMNSLRPEDTAVYYCNVPTTHYGGVYYGPYWGQGTLVTVSS", "values": [
      {"measurement": "potency, human fluorogenic peptide assay", "setting": "activated human MMP13 [13]", "result": 0.551, "unit": "nM"},
      {"measurement": "IC50", "setting": "Aggrecan", "result": 0.45, "unit": "nM"}
    ]},
    {"binder": "C010100702 (bispecific antibody, also called 517A01SO-40E09SOvar-114F08SO-114F08SO) EVQLVESGGGLVQPGGSLRLSCAASGRTFSSYAMGWFRQAPGKEREFVAAISWSGGSTYYADSVKGRFTISRDNSKNTVYLQMNSLRPEDTAVYYCTAALAVYGPSRYRYGPVGEYQYWGQGTLVTVSSGGGGSGGGGSGGGGSGGGGSGGGGSGGGGSGGGGSEVQLVESGGGSVQPGGSLRLSCAASGSTFSRYSMNWYRQAPGKQREFVAGISVGRITNYAVSVRGRFTISRDNSEGTGYLQMNSLRPEDTAVYYCNAGGLQGYWGLGTLVTVSSGGGGSGGGGSGGGGSGGGGSGGGGSGGGGSGGGGSEVQLVESGGGLVQPGGSLRLSCAASGSTFIINVVRWYRRAPGKQRELVATISSGGNANYVDSVRGRFTISRDNSKNTVYLQMNSLRPEDTAVYYCNVPTTHYGGVYYGPYWGQGTLVTVSSGGGGSGGGGSGGGGSGGGGSGGGGSGGGGSGGGGSEVQLVESGGGLVQPGGSLRLSCAASGSTFIINVVRWYRRAPGKQRELVATISSGGNANYVDSVRGRFTISRDNSKNTVYLQMNSLRPEDTAVYYCNVPTTHYGGVYYGPYWGQGTLVTVSS", "values": [
      {"measurement": "potency, human fluorogenic peptide assay", "setting": "activated human MMP13 [13]", "result": 0.0771, "unit": "nM"},
      {"measurement": "IC50", "setting": "Aggrecan", "result": 0.12, "unit": "nM"}
    ]},
    {"binder": "C010100681 (bispecific antibody, MMP13-Aggrecan bispecific Nanobody construct; also called 80A01-114F08SO-114F08SO) EVQLVESGGGLVQPGGSLRLSCAASGFTLAYYSIGWFRQAPGKEREGVSCISSGIDGSTYYADSVKGRFTISRDNAKNTMYLQMNNLKPEDTGVYYCAADPSHYYSEYDCGYYGMDYWGKGTLVTVSSGGGGSGGGGSGGGGSGGGGSGGGGSGGGGSGGGGSEVQLVESGGGLVQPGGSLRLSCAASGSTFIINVVRWYRRAPGKQRELVATISSGGNANYVDSVRGRFTISRDNSKNTVYLQMNSLRPEDTAVYYCNVPTTHYGGVYYGPYWGQGTLVTVSSGGGGSGGGGSGGGGSGGGGSGGGGSGGGGSGGGGSEVQLVESGGGLVQPGGSLRLSCAASGSTFIINVVRWYRRAPGKQRELVATISSGGNANYVDSVRGRFTISRDNSKNTVYLQMNSLRPEDTAVYYCNVPTTHYGGVYYGPYWGQGTLVTVSS", "values": [
      {"measurement": "potency, human fluorogenic peptide assay", "setting": "activated human MMP13 [13]", "result": 1.08, "unit": "nM"},
      {"measurement": "IC50", "setting": "Aggrecan", "result": 0.99, "unit": "nM"}
    ]}
  ]
}
